Our source for the Kd values is article PMC3777412.

One test has as its target pY542 peptide (human). Briefly: SPR. In general terms: In SPR one partner is held on a chip, and binding of the other changes the refractive index at the surface.
The next test has as its target pY580 peptide (human). Briefly: SPR.

In general, Kd refers to a measure of binding affinity in units of concentration. Read a high Kd as weaker binding. In the case of “C-SH2 domain of Shp2, histidine-tagged (domain or fragment)”, the figures for the Kd in the test with pY542 peptide (human) and with pY580 peptide (human) were 15.1 µM and 294 µM, respectively.
